Target: Human immunoglobulin G (IgG) (human)
Assay: LSPR

Question: For “Bovine serum albumin (from UniProt P02769 25-607) (natural protein)”, which LLSPR wavelength shift is on record?
Answer: < 1 nm

From publication PMC9359782
